Experimental data from patent US20040086933A1 (Chugai, published 2004).

B1: C-striamin with a histidine tag (pQE30/C-striamin) (other)
chain: QCSPKQKGRLPRGWASLPSLSVLVRALRASNAFSLGNYYCCPWRGTRWAKGQPGEWARPRASSPSAHREGVAVT
notes: not shown: N-terminal His tag encoded by the pQE30 vector (Qiagen)
B2: full-length striamin with a histidine tag (pQE30/full-length striamin) (other)
chain: MKGLAGEWHQDSGLDIREKAEDFSLPWLLPRLMALVMQEEGRFRSDRNHGYLREWLRIQALTACLPSPLGRVHYAQCSPKQKGRLPRGWASLPSLSVLVRALRASNAFSLGNYYCCPWRGTRWAKGQPGEWARPRASSPSAHREGVAVT
notes: also called pQE30/striamin; His-tagged striamin; not shown: N-terminal His tag encoded by the pQE30 vector (Qiagen)
B3: N-striamin with a histidine tag (pQE30/N-striamin) (other)
chain: MKGLAGEWHQDSGLDIREKAEDFSLPWLLPRLMALVMQEEGRFRSDRNHGYLREWLRIQALTACLPSPLGRVHYA
notes: as for B1

Experiments:
[1] = biological target: temperature-sensitive p53 (pMSVp53Val135) (UniProt P02340); assay: cell-based or functional assay
[2] = biological target: T1, GST (UniProt P08515 1-218 = GST); assay: GST pull-down with glutathione-Sepharose, anti-His Western blot (FIG. 9, Lanes 4 to 6)
T1 construct: also called glutathione S-transferase
Experimental: Different striamins conjugated to histidines were reacted with p53 conjugated to GST in vitro, and the reaction was immunoprecipitated with glutathione Sepharose beads, followed by Western blot analysis using anti-histidine-tag and anti-p53 antibodies (“GST-p53 pull” in the figure).
Each protein purified in step (1) (2 to 5 μg) was mixed with GST or GST-p53 (1 μg, Santa Cruz) in NP40-lysis buffer (500 μl). After two hours, glutathione-Sepharose beads (20 μl) were added to the suspension and rotated for mixing for one hour at 4° C. The beads were precipitated by centrifugation, washed three times with TBS and then boiled in SDS-sample buffer. Subsequently, SDS-PAGE was carried out for each sample, followed by detection of the respective striamins conjugated to the histidines by Western blotting using an anti-histidine-tag antibody. In addition, p53 was detected by Western blotting using anti-p53 antibody.

T1 sequence (P08515 whole entry): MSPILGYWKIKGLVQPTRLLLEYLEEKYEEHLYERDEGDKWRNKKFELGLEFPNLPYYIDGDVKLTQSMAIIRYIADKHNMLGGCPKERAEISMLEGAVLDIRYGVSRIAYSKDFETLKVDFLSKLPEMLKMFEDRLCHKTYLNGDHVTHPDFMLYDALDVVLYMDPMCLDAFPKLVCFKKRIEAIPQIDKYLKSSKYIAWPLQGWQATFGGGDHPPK

| Molecule | p53 activity (p53-responsive luciferase reporter PG-13luc in p53-/- MEF cells) [1] [fold] | β-gal positive cells (p53-responsive β-gal reporter pRGC fos-lacZ in microinjected p53-/- MEF cells) [1] [%] | binding result [2] |
| --- | --- | --- | --- |
| striamin (full-length, untagged) | 4.6 | 5 |  |
| B1 |  |  | no binding |
| B2 |  |  | no binding |
| B3 |  |  | no binding |
